Test results published in the NTF2 design screens of Basanta et al. (2020).

Experiment: protease stability score; higher = more stable; yeast display proteolysis, trypsin and chymotrypsin;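 also: relative to predicted unfolded state with 0 unfolded-like and 1 meaning tenfold more protease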
With “DEERENIEKALRLLEHFNKTGNEEDINRLMDPHARSHINGKDVHGREEVVRMLRELGVERIEVEDLEIERSKQVDGRIEIHVHTVVNFNGRHTEFRVEIIAVKVNGKWIMRSVIFE” the protease stability score was 1.56. With “EEEEKEIKDLLREIFEMIVTGDWRLIRENMDPNARMEVGDKEVHGRDHVIHHLHNLGFKHIKEKDINVQGEKISIHGHVDVNGRSRHVDFIAHKVNGKWLYKSFHFH” the protease stability score was 0.826. “TEEHDEAHEVLKIFLEIHETGDEDDMKRLADPHARLNIGDKEYHGWKHFIEWLHKIKNVTSEIHHVHVYNGKVKTEVDLHVNGQDVKIILIMEKINGRWILQSVEVR” showed a protease stability score of 1.29. Work on “DEDTHDNRHALELLLRFLETGDEDSLRELADPNARLSVNGRNQHGREDLFSTWSEMGVDHMEIKSHRIVDGRLLLHGHIKFNGRREDVHIFMVKIDGRWYIEEVKIL” yielded a protease stability score of 1.56. “DERHEKAERVTRELIKLLITGDEDLLDDLIDPNARIEIGDKVTHGRDKFSREISEMGVDHVELKEIHVYGDKAIIKGKLDINGKRNKFILIMEKINGRWFLRSMRVEDH” gave a protease stability score of 1.32. “SEDEESMRRAMEIWEKTMETGDERIYEELVDPDVKIEINGKNFIGREDAVKVFHKLGIKVSEIREVRIIGDKMILKGEDNINGRNVDSRLITRKINGKWIIESFSIV” showed a protease stability score of 1.22. “DTTEKHQKDMARAQIHSLETGDFKELMELLDPNVRFEFEVGDKRIERHGRELMVHFILKEYEEIRIRIDSWRVVNGVVKIELRLHVGDKESRIEIYLLIINGQAKSVHFDVR” gave a protease stability score of 1.09. In the case of “DELEQWVKHALEIWVRSLHTGDEDNLSELVDPNVRIDVNGQELHGRELVLHFLSHMRVHIIITRDREIQGNKAIMHLEVHHHQGDKEIHFRFDLIFHKYDGRWRLTEIRIE”, the protease stability score is reported as 1.03. In the case of “SESEELAEHWFELLIRSILTGDEDTLRRLMDPDVKIQVGDKEWHGREEYIRMVLEFSHLYKNVKLHFRIRSVVDIDGRLTVDTEIINSFDGREYRIDTRLHVDKYDGVWVAKHLIYS”, the protease stability score is reported as 1.39. With “SEDEELTNKMRHLFLHAVRTGDETVLNRLIDPNTKLHINGVDIHGREEVRTLLREMRRHEFRTRTVEIRVIDGRVEVREDVERNGVVNGQEYETRVIIIYHAVKVDGKWVWTEIRFEER” the protease stability score was 0.609. “REEEEVVREIARRVIKSWITGNEHDMQEFADPHVRIFIGDKEIIGMEILNEILHRIKNITIRINMRHVDVQGDKVDLEGELEIRVNGQTERHDSRHHFDVVNGRIKIIEIQWD” showed a protease stability score of 0.918. For “SHLEEHLKENLKREEEARRTGDFRFFSRLADPHVKIIINGVELHGMETYNEHWRQIWHDSHHMEITSIDVQGDKIEADIRIIEHGRINGVRESIVLTVRLRFEKINGRWVLTMIIIE”, the protease stability score was 0.077. Sequence “SEDDEITHYILQLWLDLVQTGDEEKLTDLHDPHVRNRINGREKHGRERAAELLSRLKKALGIDHIHRLMIEDFRIQGEKIQLHVRIKQEINGQEFTRSIELILLKINGRWSVESIDIR” has a protease stability score of 1.42. Sequence “SEDMERAESFHREWLEFSRTGDEDTLRSLLDPNARLRYGDKEYHGMDSLSRVDRELRVHDSRVHDLRIIDGRVHMDVDLDGTYNGKRVLLHTHFVVEKIDGRWILRSVHIH” has a protease stability score of 0.643. Sequence “DELDKLAHIMMEEILRNWVTGDEDRHNELADPTVRMHSIVGDKHLEIHGREIFTEFLKRIKNVTFEIRLTDLKIQGEKAHSHTRLILRFDGQQVERDTEVTIIVINGRVKDVSIIIR” has a protease stability score of 1.06. Work on “HEDEDLLEELARKYKHHLETGDEHIIRRLVDPHVRIEQGEKKLIGREEFLRILTELLRSWGVTRFEFRIEDFRLQGDKAHMRGSVEVGDFHHDVEIVSRKIDGRWVITHYHEI” yielded a protease stability score of 0.118. Work on “REEEEEIRFAEEFWMELEKTGDEHKILRMADPNVRVRIGDKHHHGREHLRRVIEWRLEYAGIDKIEVRLRRVTIINGRVHIDGELIVGDKEHRVEIILVKINGRWILHEFEIR” yielded a protease stability score of 1.5. “DEFNEATRRALHEEMKTRHTGDEDLFHRLADPDVRVIYGDKHIHGREEVVHWLREIRVKTHHLEIRRSHFQGEKAHVDGKLNGDFIFDGRTFTVQIHVEFIMIKWNGQWRIEMLRFE” showed a protease stability score of 1.09. Sequence “SEDEHRSHLLLKEFEHLMRTGNEEEIERNLDPHTRLEFNGREFHGREDAREVWRRFGFKHLDSLRFHHLEIQGDKIIIDSRTEMLFNGVHTITRVEFHALKIDGRWLSTELRIG” has a protease stability score of 0.919. Sequence “DEDEETAREMVEHFLQILLTGDEHNLSRLMDPNARVQIGDKTLHGRVNFVKWIEELGLDRVDVQLRRSRVIGNKIHIHGEERFNGVTMESHVDAVKINGQWHIERVEHR” has a protease stability score of 0.629. “SEHHEEATEATKHFVHLMRTGDFDRLLELADPHVRVRINGKNLIGREDLDKLWKELGLTNVDVRIDDFSHQGDKVEIHTREHFNGRTVDVIVILEKINGQWVIKRREQR” gave a protease stability score of 0.4. For “SEEEEMDRHYSNLWNHLMFTGDWHWLEKLVDPHTRTIVDGQERHGREEALKVLKEVLEILGADVIRIHEMRYQGEKSNLVIEIKQGDKRLRVVIEVVVIDGVMHSLDLEIRHE”, the protease stability score was 0.795. “NEEQNHAERMMRENLHNIMTGDEHKLHKLADPDARIEIGDKEIIGRELFSRILLELRFEITRVHIREITLIGDKVHVRTEEDVVIKVNGVEKRRHINSEWIFFKFNGQWLLKEVRFE” gave a protease stability score of 1.34. With “SEDEEYVEHMIRLVIRSLWTGDEHLLHRLIDPHARAEVNGQEFHGREEVLDILMRIRDELGVDHIELKDFELQGDKLILYSQNNVGDKHFHIIYELTKINGRWRIHRVFIELR” the protease stability score was 1.7. Work on “DDREEDLHKALHLFRMTMLTGNEDLFRDLADPHTRVSVNGQELIGREHMEHWWKRVDHIEDSRLERVDIVDGVVLVDGRFVGTVNGRRIDTEYTIFAQKVNGQWILHSVKIV” yielded a protease stability score of 1.19. Work on “DEEEQHLKKFLKYLKKAIETGDWHKITEMADPNTRLNINGVDNIGWEIISHILMHELEELGLEQIHVHFEHERIQGDKVKLEIHLHIGDKVEHAEMYILKFDGRWRIKRLVRG” yielded a protease stability score of 1.93. “DEDEKNLEKVAHDFIRATETGNEKILHELLDPNTREEINGVDLHGRETIAKFFLDIRRNLGIKVRMRLRDWKIYNGVVELDTEVIIDVGDKRIEHKVVIYVVKYNGRWLIDKIEWI” gave a protease stability score of 1.81. With “DDERRDTKLAIDLWVETWHTGDEQMFEDLADPHTRIIIGDKEHVGREEAVRYSSELIRRLGANHVDVTFRETRMYNGRIDVKGEINLHIGDKDHHREVHVYSRKIDGRWVLERIEFR” the protease stability score was 1.3. With “DEDKDVTKRLFELLRQADETGDEHTMTRLLDPHAQLVVNGRRVHGMEFVWELLLRLRHRYDHSHWRLHDARTQGEYMHLDVRLHLNIDGKRVNIEMHLIILKIDGVWFVHSVEIH” the protease stability score was 0.45. In the case of “SREHKEAEDALRQWLETLRTGDERTMHELFDPNVRLHINGKEIHGREKVLTQLEHELKRFKNVRYELESIDITEHHVRVFGTSHVNGVEEKLEIVILKWDGRWRVQELYVHRV”, the protease stability score is reported as 1.67. For “DTVTEMDRHIFEHLLHLWKTGDWKRMTELFDPHARSVFNGRELHGRKSMQEAIEIIVRRADHIELHIRSLDVVDGQIDLDGELILIVGDKKIVHETHIHIHVYNGQVTELSFQIV”, the protease stability score was 0.585. Sequence “DELIKLAHEFLRIMYDSLRTGDEDRVSELLDPHARLDINGKKRHGRKAILDTYREIWFHDIKIKDVDVIDGVIEIDTRLDLEINGVRFEMKTIIFLTKFNGRWVIEEIRIR” has a protease stability score of 1.21. For “SEDEEETRESLELLMRSLKTGDEHQIRRMFDPDALTVIDGREFHGRERATHAMREWKREIRIKEIRIRDWKTQGEKVHLDIEVVTEVNGVEDRREVKLLLIKVNGRWFIHSIHIH”, the protease stability score was 1.43. With “SEEEKIVDERIKILLESWDTGDWDSFIKMLDPNALSIVGEFVMHGRETVVDALDKLLKKLGVKMETHDTEHFEIYGNKARLETTIHLRVGDFHFKRRTRVHMEKVDGQWFITIYESG” the protease stability score was 1.31. Sequence “DESEELTEELSRLWLHWYLTGDEEIFKHNFDPNARQDYNGKEIHGRDRVVRFLEELWRMLGAKHFHIRHEEYYGNKVRIEGHITVGDKHRETEIQINIINGKIKEIRIEVK” has a protease stability score of 2.12. In the case of “SETEKFAEIALKLWIRRLRTGDEHEESMLADPNTLYVQGDKNIHGMERISRFFKEILTRHGITFNHFHLEHIEVQGNKVRLDLRVDGEFDGQRMNQEVELISIKVDGRWFLESVIIR”, the protease stability score is reported as 1.62.
